Experimental data reported in patent publication US20110009342A1, “USES OF PDCD5 POLYPEPTIDE FOR TUMOR CHEMOTHERAPY AND ORGAN PROTECTION” (priority 2008, published 2011).

Tests used:
[1] = tested on: SiHa cervical cancer cells; conditions: Zhang et al. 2004; cited from earlier work
[2] = tested on: Jurkat cells; assay: FITC/Annexin-V apoptosis by flow cytometry, DNR; format: cell-based
Method: Methods: The density of Jurkat cells were adjusted by RPMI 1640 medium (Life Technologies, USA) supplemented with 10% Fetal Bovine Serum (FBS, Hyclone, USA). […] Subsequently, DNR (Pharmacia Italia S.P.A) was added with its final concentration of 0.05 μg/mL, and RPMI 1640 medium supplemented with 10% FBS was added to ensure the system to be 1 mL. After 24h incubation, the sample was stained with FITC/Annexin-V (Beijing Biosea Biotechnology CO., LTD) and detected for apoptosis by flow cytometry.

[3] = tested on: U937 xenografts; assay: U937 nude mice xenograft model, DNR; format: in vivo, BALB/c nude mice; conditions: fifteenth day; rhPDCD5 40 μg into the tumor, DNR 40 μg intraperitoneal, once a day for 8 days
Method: Methods: U937 nude mice xenograft model: BALB/c nude mice (5-6 weeks of age) were pretreated with cyclophosphamide (100 mg/kg, injected intraperitoneally once a day for two consecutive days). On day 3, 1×10^7 (100 μl) of U937 cells were subcutaneously (s.c.) injected into a single flank of each of the mice. The treatments began on day 7 after inoculation when the average tumor diameter reached about 5 mm. The mice were divided randomly into four groups (n=6, i.e., six mice in each group) and treated with normal saline (NS), rhPDCD5 (40 μg, locally injected into the tumor), DNR (40 μg, intraperitoneal) or DNR (40 μg) plus rhPDCD5 (40 μg), once a day for 8 consecutive days.
Tumor volume (V) was determined every other day by vernier caliper measurements and calculated based on the equation of V=ab^2/2, where “a” refers to a long tumor diameter and “b” refers to a short diameter, then tumor volume growth curve was drawn. The percentage of reductions in tumor growth was calculated using the formula: [1-(Tf-Ti)/(Cf-Ci)]×100, where Tf and Ti are the final and initial mean tumor volumes, respectively, of the group receiving a specific treatment, and Cf and Ci are the final and initial mean tumor volumes, respectively, of the NS control group. After the treatment, tumors were collected and weighed and tissues were sectioned and processed by histological hematoxylin and eosin (H&E) staining. Results were statistically analyzed using SPSS 13.0. The measurements were expressed as the mean±standard deviation. Data were analyzed by the single-factor ANOVA and Student's t test and are presented as mean±standard deviation (SD). P<0.05 was considered statistically significant.

[4] = tested on: K562 cells; assay: FITC/Annexin-V apoptosis by flow cytometry, IDR; format: cell-based
Method: Methods: Cell staining with FITC/Annexin-V and cell apoptosis in vitro detection by flow cytometry: K562 cells (ATCC) were maintained in RPMI 1640 (Life Technologies, USA) supplemented with 10% FBS (Hyclone, USA), and were plated in 24-well culture dishes to a density of 2×10^5 cells/mL. rhPDCD5 protein was added with a final concentration of 7.5 μg/mL, 15 μg/mL and 30 μg/mL, respectively, in each well. Chemotherapeutic drug IDR was then added with a final concentration of 56 ng/mL and RPMI 1640 with 10% FBS was added to make the system to 1 mL. After 24 hours of co-culture, the cells were stained with FITC/Annexin-V (Baosai company) and apoptosis was detected by flow cytometry.

B1: rhPDCD5: recombinant human programmed cell death 5 protein (SEQ ID NO:1) expressed in E. coli and purified (protein, listed as Homo sapiens)
chain: MADEELEALRRQRLAELQAKHGDPGDAAQQEAKHREAEMRNSILAQVLDQSARARLSNLALVKPEKTKAVENYLIQMARYGQLSEKVSEQGLIEILKKVSQQTEKTTTVKFNRRKVMDSDEDDDY
effect on apoptosis induced by IFNγ in vitro [1]: had a sensitized effect on apoptosis of SiHa cervical cancer cells | enhancement of DNR-induced apoptosis [2]: can significantly enhance DNR-induced apoptosis | Average size of tumors (mean ± SD) [3]: 571.96 ± 237.91 mm^3 | promotion of apoptosis induced by IDR [4]: could significantly promote apoptosis
